Measured values from patent US7074905.

Key:
[1] = target: soluble sc-IA^d/OVA secreted by SCE1-transfected NSO cells (murine); test: IA^d-specific sandwich ELISA, M5/114 capture, biotin-AMS-32.1 probe; undiluted culture supernatant of E11 (SCE1 transfectant)
[2] = target: soluble sc-IA^d/OVA produced in SF9 insect cells (baculovirus) (murine); test: IA^d-specific sandwich ELISA, M5/114 capture, biotin-AMS-32.1 probe; sc-IA^d/OVA from insect cell culture (positive control)
[3] = target: soluble sc-IA^d/OVA secreted by SCE1-transfected NSO cells (murine); test: IA^d-specific sandwich ELISA, M5/114 capture, biotin-AMS-32.1 probe; undiluted culture supernatant of E10 (SCE1 transfectant)
[4] = target: sc-IA^d/OVA-Cκ fusion molecule (sc-IA^d/OVA fused to the mouse kappa constant domain), from pIADK-transfected NSO cells (murine; mouse); test: cell-based or functional assay
[5] = target: soluble sc-IA^d/OVA produced in SF9 insect cells (baculovirus) (murine); test: cell-based or functional assay
[6] = target: sc-IA^d/gD (sc-IA^d fusion protein carrying the gD 246-261 peptide), from insect cells (HSV-1; murine); test: cell-based or functional assay
[7] = target: soluble sc-DR2/MBP-Cκ fusion molecule (human kappa constant domain) from pDRHK-transfected CHO cells (human); test: sandwich ELISA, anti-human kappa capture, L243-HRP probe; cell line CHOE 12
Chain of soluble sc-DR2/MBP-Cκ fusion molecule (human kappa constant domain) from pDRHK-transfected CHO cells (human) (P02686 other isoform, or with tags, fused parts or gaps): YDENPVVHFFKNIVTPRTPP

[8] = target: soluble sc-DR2/MBP-Cκ fusion molecule (human kappa constant domain) from pDRHK-transfected CHO cells (human); test: sandwich ELISA, anti-human kappa capture, L243-HRP probe; cell line CHOA5
[9] = target: soluble sc-DR2/MBP-Cκ fusion molecule (human kappa constant domain) from pDRHK-transfected CHO cells (human); test: sandwich ELISA, L227 capture, L243-HRP probe; cell line CHOA5
[10] = target: soluble sc-DR2/MBP-Cκ fusion molecule (human kappa constant domain) from pDRHK-transfected CHO cells (human); test: sandwich ELISA, L227 capture, L243-HRP probe; cell line CHOE 12

With “anti-IA^d mAb AMS-32.1 (PharMingen) (antibody)” the Absorbance [1] was 0.96, the Absorbance [2] was 2.44 and the Absorbance [3] was 0.781.
In the case of “T-cell receptor of the murine T-cell hybridoma DO11.10 (TCR)”, the DO11.10 IL-2 Released (pg/well) [4] is reported as 500 pg/well, the DO11.10 IL-2 Released (pg/well) [5] is reported as 528 pg/well and the DO11.10 IL-2 Released (pg/well) [6] is reported as 0 pg/well.
L243 mAb (ATCC HB-55) (antibody) was tested, and the ELISA Readings (Absorbance) [7] was 1.06, the ELISA Readings (Absorbance) [8] was 1.45 and the ELISA Readings (Absorbance) [9] was 0.434. For the same substance, the ELISA Readings (Absorbance) [10] was 0.245.
